Measurements published in IntAct's records for PubMed 25819436.

Tests used:
sh3g2_rat Sh3gl2 = sh3g2_rat Sh3gl2 (UniProt O35179)
sh3g1_rat Sh3gl1 = sh3g1_rat Sh3gl1 (UniProt O35964)
amph_rat Amph = amph_rat Amph (UniProt O08838)
grb2_human GRB2 = grb2_human GRB2 (UniProt P62993)

Measured: effect of a mutation on the interaction

Sequence of SLIT-ROBO Rho GTPase-activating protein 3 (Homo sapiens), O43295 P1056A;P1059A (O43295 whole entry P1056A/P1059A): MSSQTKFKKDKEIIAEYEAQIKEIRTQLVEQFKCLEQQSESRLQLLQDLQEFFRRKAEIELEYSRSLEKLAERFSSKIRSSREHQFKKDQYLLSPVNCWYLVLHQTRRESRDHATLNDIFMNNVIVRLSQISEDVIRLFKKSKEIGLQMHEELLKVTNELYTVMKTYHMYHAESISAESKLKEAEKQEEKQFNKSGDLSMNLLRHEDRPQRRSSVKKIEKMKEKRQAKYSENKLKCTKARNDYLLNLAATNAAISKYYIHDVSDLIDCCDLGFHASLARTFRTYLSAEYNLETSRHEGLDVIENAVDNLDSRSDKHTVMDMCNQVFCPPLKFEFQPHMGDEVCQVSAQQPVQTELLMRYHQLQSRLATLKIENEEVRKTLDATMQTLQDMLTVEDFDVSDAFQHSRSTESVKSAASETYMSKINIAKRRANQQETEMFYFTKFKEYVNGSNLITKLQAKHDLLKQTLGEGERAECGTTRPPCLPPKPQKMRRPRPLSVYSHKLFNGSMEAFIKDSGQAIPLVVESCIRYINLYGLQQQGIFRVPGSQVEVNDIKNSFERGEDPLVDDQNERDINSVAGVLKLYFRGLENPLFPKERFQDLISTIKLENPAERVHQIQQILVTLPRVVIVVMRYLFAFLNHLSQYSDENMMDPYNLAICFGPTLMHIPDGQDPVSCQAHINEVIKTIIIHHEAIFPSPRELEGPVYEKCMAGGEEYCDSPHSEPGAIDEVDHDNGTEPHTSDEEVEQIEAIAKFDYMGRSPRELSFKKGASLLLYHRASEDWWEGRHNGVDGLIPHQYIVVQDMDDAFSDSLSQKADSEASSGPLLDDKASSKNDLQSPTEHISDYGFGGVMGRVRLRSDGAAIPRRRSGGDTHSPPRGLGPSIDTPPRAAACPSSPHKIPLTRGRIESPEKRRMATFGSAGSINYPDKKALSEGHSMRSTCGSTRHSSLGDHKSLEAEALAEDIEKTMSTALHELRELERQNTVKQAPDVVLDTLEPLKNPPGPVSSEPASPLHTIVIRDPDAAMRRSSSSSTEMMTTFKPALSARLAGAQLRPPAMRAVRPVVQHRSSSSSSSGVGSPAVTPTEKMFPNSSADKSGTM
Sequence of amph_rat Amph (O08838 whole entry): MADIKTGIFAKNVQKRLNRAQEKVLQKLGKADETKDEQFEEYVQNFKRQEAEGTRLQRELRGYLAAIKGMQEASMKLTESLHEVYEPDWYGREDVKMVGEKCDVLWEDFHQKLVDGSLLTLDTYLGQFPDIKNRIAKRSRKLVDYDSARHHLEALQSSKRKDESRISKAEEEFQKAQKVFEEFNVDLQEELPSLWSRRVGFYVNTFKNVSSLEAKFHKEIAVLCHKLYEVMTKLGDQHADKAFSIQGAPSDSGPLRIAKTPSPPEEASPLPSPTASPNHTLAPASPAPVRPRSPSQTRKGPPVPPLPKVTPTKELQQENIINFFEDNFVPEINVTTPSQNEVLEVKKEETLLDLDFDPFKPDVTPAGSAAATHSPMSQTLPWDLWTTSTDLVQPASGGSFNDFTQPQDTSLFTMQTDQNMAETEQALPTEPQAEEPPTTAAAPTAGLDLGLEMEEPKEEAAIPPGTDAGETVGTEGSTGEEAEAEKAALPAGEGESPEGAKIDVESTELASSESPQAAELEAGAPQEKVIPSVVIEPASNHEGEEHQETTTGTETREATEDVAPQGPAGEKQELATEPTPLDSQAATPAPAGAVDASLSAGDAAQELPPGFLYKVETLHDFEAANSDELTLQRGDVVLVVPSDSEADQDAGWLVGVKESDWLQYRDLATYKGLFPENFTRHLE
Sequence of sh3g1_rat Sh3gl1 (O35964 whole entry): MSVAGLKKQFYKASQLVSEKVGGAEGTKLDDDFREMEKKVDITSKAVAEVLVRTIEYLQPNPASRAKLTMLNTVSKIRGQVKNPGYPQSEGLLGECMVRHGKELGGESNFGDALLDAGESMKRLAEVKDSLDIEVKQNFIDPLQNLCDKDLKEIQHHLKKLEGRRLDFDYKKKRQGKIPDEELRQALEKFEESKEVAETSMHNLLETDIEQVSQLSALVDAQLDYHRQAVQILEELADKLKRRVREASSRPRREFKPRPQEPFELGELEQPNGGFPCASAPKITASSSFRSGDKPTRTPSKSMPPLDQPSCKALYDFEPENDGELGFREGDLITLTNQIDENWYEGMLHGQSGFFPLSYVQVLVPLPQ
Sequence of grb2_human GRB2 (P62993 whole entry, looked up): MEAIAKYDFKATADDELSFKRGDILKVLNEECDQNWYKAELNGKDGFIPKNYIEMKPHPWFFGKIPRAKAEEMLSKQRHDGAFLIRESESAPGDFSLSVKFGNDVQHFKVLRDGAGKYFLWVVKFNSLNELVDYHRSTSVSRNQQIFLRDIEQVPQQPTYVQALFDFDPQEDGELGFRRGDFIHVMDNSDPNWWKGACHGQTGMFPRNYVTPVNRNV
Sequence of sh3g2_rat Sh3gl2 (O35179 whole entry): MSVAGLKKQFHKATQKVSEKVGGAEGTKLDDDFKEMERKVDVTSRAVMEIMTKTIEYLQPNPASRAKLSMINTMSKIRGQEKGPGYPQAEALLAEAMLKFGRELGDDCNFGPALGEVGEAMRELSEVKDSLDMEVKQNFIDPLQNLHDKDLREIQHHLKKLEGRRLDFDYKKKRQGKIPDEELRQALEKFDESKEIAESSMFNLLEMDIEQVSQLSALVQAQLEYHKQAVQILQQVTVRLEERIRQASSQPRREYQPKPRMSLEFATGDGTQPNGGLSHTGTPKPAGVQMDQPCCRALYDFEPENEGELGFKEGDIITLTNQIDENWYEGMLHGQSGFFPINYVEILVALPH

SLIT-ROBO Rho GTPase-activating protein 3 (Homo sapiens), O43295 P1056A;P1059A
disrupting interaction: all assays above
